This is an account of results in PMC4699637, “Papillomavirus-Associated Tumor Formation Critically Depends on c-Fos Expression Induced by Viral Protein E2 and Bromodomain Protein Brd4”.

Data set [1] has as its target T1, c-Jun (UniProt P05412 1-331). Kind of data set: competition; homodimer; 100-fold excess unlabeled vs N1. The settings on record: protein: recombinant; chain copies: 2; blunt.
Data set [2] addresses T1, c-Jun. Briefly: EMSA; homodimer. The settings on record: protein: recombinant; chain copies: 2; label: 32P; blunt. On the technique in general: In EMSA bound probe runs differently from free probe, usually more slowly.

T1 sequence (P05412 whole entry): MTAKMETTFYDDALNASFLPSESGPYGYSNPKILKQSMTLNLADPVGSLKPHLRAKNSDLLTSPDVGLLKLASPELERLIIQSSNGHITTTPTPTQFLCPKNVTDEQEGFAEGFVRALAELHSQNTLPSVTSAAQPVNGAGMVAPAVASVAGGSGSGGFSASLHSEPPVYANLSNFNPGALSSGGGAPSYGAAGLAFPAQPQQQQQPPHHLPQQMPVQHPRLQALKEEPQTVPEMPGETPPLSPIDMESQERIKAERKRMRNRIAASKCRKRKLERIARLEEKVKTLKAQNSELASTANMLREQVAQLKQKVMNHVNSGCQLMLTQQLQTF

B1: dAP CRPV URR mut (mdAP) (dsDNA)
DNA 1: GCATGCGACATATGTTACAC
DNA 2: GTGTAACATATGTCGCATGC
For the molecule B1, the binding result with c-Jun [1] is given as “no binding”.

B2: dAP CRPV URR WT (dsDNA)
DNA 1: GCATGCGATGACACATTACAC
DNA 2: GTGTAATGTGTCATCGCATGC
For the molecule B2, the binding result in the data set with c-Jun [2] is “binds”.
